The target in this assay is full-length GST-hDlg fusion protein (human) (UniProt Q12959). Kind of assay: pull-down.
full-length GST-hDlg fusion protein (human), sequence (Q12959 whole entry, the tested form may be a part): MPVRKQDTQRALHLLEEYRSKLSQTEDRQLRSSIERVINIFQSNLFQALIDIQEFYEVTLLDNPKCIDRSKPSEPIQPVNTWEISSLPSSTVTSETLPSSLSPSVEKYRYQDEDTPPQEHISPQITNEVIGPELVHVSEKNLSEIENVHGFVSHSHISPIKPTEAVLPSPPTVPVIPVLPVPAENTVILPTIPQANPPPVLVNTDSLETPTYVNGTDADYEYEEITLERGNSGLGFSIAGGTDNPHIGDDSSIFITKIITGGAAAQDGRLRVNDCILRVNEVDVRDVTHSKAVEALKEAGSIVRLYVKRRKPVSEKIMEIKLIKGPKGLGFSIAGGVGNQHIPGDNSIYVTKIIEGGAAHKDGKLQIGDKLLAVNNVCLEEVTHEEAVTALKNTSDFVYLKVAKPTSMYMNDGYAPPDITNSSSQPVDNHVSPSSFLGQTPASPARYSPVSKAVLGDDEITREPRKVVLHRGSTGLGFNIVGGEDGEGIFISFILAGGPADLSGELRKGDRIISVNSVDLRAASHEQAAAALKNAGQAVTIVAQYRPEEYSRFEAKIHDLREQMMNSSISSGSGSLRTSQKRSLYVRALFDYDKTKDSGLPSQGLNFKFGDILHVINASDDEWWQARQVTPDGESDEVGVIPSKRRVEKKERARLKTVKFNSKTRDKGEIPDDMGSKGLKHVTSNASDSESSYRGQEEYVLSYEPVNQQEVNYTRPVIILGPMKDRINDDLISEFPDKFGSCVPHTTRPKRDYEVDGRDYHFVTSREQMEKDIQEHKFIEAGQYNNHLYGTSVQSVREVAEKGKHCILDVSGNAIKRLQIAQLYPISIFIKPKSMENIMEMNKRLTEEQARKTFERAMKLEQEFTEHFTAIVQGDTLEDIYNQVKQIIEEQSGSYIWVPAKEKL

As usually defined, the Kd is the equilibrium constant for the complex coming apart. A higher Kd goes with lower affinity. In the case of “125I-labeled 30-kD amino-terminal domain of protein 4.1 (domain or fragment)”, the Kd amounted to 5.3 nM.

(Values after PMC2121072.)
